Like-named read-outs stand apart in the source and are kept apart here.

Common to all, as to test: rosette formation
The target of experiment [1] is C receptor type 1, the C3b receptor (human (endogenous in erythrocytes, monocytes and neutrophils)) (UniProt P17927).
In experiment [2] the target is C receptor type 2, the C3d receptor (human (endogenous in Raji)) (UniProt P20023).
For experiment [3], the target named is C receptor type 1, the C3b receptor (human (endogenous in erythrocytes, monocytes and neutrophils)) (UniProt P17927). The source holds these as a separate data set.
The target of experiment [4] is C receptor type 3, iC3b receptor (human (endogenous in monocytes and neutrophils)) (UniProt P11215).
Experiment [5] concerns the target C receptor type 1, the C3b receptor (human (endogenous in erythrocytes, monocytes and neutrophils)) (UniProt P17927). The source holds these as a separate data set.
For experiment [6], the target named is C receptor type 3, iC3b receptor (human (endogenous in monocytes and neutrophils)) (UniProt P11215). The source holds these as a separate data set.
The target in experiment [7] is C receptor type 1, the C3b receptor (human (endogenous in erythrocytes, monocytes and neutrophils)) (UniProt P17927). The source holds these as a separate data set.

C receptor type 1, the C3b receptor (human (endogenous in erythrocytes, monocytes and neutrophils)), sequence (P17927 42-2039): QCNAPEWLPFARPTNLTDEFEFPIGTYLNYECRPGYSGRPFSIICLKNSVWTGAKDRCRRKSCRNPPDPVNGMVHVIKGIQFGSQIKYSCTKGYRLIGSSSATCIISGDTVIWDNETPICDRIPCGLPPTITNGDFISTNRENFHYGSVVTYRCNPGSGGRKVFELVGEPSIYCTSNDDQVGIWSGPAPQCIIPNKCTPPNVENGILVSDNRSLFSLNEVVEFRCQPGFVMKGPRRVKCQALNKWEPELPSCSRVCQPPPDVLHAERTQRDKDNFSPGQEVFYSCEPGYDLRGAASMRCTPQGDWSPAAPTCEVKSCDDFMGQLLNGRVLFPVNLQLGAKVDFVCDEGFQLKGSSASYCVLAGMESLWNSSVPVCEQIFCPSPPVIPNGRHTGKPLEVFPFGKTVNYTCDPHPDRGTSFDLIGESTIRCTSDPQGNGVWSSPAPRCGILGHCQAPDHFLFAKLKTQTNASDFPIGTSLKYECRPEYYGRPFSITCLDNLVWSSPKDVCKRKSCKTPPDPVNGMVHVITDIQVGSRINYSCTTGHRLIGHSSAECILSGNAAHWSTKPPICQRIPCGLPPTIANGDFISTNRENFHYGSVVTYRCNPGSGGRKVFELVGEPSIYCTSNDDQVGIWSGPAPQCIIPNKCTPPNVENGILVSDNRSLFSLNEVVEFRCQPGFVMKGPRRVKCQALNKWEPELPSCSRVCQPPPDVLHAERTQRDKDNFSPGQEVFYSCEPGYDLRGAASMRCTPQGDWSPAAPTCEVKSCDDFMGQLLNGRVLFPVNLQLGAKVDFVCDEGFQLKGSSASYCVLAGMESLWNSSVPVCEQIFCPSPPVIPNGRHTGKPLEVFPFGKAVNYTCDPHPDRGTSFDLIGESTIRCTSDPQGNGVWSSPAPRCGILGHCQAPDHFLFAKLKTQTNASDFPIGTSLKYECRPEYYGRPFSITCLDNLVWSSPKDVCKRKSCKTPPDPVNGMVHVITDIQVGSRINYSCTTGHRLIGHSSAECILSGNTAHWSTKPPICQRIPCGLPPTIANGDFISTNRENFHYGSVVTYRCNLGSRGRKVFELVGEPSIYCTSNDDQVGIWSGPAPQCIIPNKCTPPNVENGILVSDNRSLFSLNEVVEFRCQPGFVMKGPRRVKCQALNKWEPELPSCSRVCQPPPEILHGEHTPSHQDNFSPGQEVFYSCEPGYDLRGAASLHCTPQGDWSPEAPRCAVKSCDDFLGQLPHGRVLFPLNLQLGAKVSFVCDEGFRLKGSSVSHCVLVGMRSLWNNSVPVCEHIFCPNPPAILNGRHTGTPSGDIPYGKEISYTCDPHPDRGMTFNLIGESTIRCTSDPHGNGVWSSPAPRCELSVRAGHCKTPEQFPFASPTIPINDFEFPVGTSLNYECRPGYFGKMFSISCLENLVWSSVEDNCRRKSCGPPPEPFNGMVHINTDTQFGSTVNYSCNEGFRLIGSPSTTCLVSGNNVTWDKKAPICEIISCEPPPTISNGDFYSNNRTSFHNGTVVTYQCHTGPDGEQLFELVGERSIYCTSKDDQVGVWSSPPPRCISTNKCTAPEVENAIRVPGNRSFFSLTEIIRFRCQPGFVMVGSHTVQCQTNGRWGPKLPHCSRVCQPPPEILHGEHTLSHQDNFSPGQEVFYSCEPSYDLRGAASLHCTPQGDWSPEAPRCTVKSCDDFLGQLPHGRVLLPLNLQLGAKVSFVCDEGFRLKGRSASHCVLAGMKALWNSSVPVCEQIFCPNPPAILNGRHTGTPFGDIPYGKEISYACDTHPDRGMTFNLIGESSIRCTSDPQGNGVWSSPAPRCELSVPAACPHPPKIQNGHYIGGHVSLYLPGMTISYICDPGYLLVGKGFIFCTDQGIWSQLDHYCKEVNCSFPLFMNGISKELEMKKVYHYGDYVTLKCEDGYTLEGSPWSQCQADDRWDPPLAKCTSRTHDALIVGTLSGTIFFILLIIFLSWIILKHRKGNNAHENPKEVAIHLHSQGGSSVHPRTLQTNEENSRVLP
C receptor type 2, the C3d receptor (human (endogenous in Raji)), sequence (P20023 21-1033): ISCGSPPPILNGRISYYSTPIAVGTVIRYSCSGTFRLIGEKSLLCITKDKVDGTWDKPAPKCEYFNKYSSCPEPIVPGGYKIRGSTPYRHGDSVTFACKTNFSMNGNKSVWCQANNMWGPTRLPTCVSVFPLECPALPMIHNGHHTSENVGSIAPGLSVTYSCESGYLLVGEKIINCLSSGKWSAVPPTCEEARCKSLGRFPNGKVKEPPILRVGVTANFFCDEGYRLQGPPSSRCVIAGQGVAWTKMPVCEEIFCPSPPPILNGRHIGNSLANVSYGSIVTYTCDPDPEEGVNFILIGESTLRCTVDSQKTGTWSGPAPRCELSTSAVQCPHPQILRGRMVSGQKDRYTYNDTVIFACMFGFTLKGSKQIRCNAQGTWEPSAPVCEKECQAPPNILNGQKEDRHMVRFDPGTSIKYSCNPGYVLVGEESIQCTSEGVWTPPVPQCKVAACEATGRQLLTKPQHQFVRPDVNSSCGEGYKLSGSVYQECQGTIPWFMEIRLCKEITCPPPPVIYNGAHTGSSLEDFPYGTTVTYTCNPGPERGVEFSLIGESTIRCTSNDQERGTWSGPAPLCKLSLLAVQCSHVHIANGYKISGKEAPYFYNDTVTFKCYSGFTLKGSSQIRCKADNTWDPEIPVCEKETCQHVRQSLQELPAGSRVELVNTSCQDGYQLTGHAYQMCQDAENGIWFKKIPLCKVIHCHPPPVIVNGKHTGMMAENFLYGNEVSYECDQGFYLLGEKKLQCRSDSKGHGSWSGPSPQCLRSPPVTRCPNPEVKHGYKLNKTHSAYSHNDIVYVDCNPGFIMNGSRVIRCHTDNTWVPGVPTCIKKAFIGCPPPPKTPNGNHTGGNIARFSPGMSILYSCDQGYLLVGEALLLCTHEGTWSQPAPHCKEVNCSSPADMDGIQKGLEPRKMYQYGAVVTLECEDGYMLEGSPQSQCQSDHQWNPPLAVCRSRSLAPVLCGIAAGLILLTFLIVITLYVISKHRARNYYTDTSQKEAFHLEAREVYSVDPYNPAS
C3c, sequence (P01024 23-1663): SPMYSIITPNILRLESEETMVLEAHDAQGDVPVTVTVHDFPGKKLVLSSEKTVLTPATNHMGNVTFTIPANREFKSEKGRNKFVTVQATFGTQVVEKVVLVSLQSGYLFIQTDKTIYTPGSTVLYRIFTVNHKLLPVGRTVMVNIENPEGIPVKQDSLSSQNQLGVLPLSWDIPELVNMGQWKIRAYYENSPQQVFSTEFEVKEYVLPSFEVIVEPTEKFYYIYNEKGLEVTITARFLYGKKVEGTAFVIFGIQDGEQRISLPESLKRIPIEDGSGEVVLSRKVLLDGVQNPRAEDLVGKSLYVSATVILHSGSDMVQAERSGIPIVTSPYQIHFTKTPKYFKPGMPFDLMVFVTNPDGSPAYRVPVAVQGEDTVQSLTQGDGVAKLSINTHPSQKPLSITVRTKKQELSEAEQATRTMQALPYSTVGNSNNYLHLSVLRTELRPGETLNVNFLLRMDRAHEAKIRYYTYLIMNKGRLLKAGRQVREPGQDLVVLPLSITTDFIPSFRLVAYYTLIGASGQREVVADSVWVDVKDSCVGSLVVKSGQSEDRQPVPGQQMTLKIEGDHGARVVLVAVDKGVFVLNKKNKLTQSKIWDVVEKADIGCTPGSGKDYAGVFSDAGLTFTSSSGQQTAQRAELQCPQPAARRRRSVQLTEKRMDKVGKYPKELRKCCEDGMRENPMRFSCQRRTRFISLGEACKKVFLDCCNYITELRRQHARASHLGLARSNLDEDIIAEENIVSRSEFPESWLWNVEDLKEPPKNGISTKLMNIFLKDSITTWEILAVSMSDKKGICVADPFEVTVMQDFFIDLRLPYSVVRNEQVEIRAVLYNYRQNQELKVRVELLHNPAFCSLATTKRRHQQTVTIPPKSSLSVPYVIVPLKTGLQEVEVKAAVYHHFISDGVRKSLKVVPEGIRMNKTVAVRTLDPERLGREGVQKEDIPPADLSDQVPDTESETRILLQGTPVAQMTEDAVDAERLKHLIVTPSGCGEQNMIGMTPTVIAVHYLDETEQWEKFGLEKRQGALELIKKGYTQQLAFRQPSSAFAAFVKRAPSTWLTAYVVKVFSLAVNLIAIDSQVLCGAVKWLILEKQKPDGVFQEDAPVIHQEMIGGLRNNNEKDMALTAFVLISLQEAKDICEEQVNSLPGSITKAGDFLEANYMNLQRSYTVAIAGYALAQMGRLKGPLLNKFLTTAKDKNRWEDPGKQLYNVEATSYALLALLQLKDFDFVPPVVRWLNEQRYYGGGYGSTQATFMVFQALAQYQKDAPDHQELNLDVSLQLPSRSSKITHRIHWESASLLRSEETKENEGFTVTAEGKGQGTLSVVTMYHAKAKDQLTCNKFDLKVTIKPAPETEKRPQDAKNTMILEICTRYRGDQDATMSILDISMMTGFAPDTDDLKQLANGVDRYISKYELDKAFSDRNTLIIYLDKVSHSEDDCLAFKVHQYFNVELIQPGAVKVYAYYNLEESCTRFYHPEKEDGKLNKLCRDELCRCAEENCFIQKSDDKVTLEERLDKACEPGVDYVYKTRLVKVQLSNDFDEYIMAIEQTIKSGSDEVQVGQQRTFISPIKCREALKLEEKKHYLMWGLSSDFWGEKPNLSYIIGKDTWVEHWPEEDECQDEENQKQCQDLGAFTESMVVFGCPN

For “C3c (from UniProt P01024 23-667; P01024 749-954; P01024 1321-1663) (domain or fragment)”, in experiment [1], the % rosette formation (C3c microspheres, erythrocytes, buffer) is 72% and the % rosette formation (C3c microspheres, monocytes, buffer) worked out at 80%.
On to “C3d,g (from UniProt P01024 1002-1303) (domain or fragment)”, for which, in experiment [2], the % rosette formation (C3d,g microspheres, Raji cells, buffer) stood at 99% and the % rosette formation (Raji cells, 6.9 x 10^4 C3d,g per E, buffer) was determined as 99%.
For “iC3b (inactivated C3b) (from UniProt P01024 23-667; P01024 749-1663; P01024 749-1663) (domain or fragment)”, in experiment [3], the % rosette formation (erythrocytes, 37 x 10^3 iC3b per E) stood at 15%; the % rosette formation (erythrocytes, 65 x 10^3 iC3b per E) is 22%; the % rosette formation (monocytes treated with anti-Mac-1, 14 x 10^3 iC3b per E) was found to be 5%; the % rosette formation (monocytes treated with anti-Mac-1, 65 x 10^3 iC3b per E) turned out to be 75%. In experiment [3], this substance registered a % rosette formation (neutrophils treated with anti-Mac-1, 14 x 10^3 iC3b per E) of 4% and a % rosette formation (neutrophils treated with anti-Mac-1, 65 x 10^3 iC3b per E) of 95%. In experiment [4], the % rosette formation (monocytes treated with anti-CR1, 14 x 10^3 iC3b per E) worked out at 74%; the % rosette formation (monocytes treated with anti-CR1, 65 x 10^3 iC3b per E) amounted to 85%; the % rosette formation (monocytes, 7.9 x 10^3 iC3b per E) worked out at 59%; the % rosette formation (neutrophils treated with anti-CR1, 14 x 10^3 iC3b per E) was found to be 79%. The % rosette formation (neutrophils treated with anti-CR1, 65 x 10^3 iC3b per E) in experiment [4] was 92%. Besides, in experiment [5], the % rosette formation (erythrocytes, 14 x 10^3 iC3b per E) turned out to be 10%; the % rosette formation (erythrocytes, 37 x 10^3 iC3b per E) is 22%; the % rosette formation (erythrocytes, 65 x 10^3 iC3b per E) was determined as 32%; the % rosette formation (monocytes treated with anti-Mac-1, 14 x 10^3 iC3b per E) was determined as 13%. For the same substance, in experiment [5], the % rosette formation (monocytes treated with anti-Mac-1, 65 x 10^3 iC3b per E) was found to be 81%; the % rosette formation (monocytes, 14 x 10^3 iC3b per E) is 18%; the % rosette formation (monocytes, 65 x 10^3 iC3b per E) was found to be 85%; the % rosette formation (neutrophils treated with anti-Mac-1, 14 x 10^3 iC3b per E) came out at 9%. In experiment [5], the % rosette formation (neutrophils treated with anti-Mac-1, 65 x 10^3 iC3b per E) was 86%; the % rosette formation (neutrophils, 14 x 10^3 iC3b per E) stood at 11%; the % rosette formation (neutrophils, 37 x 10^3 iC3b per E) was found to be 84%; the % rosette formation (neutrophils, 65 x 10^3 iC3b per E) is 88%. In experiment [2], this substance had a % rosette formation (iC3b microspheres, Raji cells, buffer) of 98%. In experiment [1], this substance had a % rosette formation (erythrocytes, 14 x 10^3 iC3b per E) of 21%; a % rosette formation (erythrocytes, 37 x 10^3 iC3b per E) of 39%; a % rosette formation (erythrocytes, 65 x 10^3 iC3b per E) of 60%; a % rosette formation (iC3b microspheres, erythrocytes, buffer) of 75%. In experiment [1], this substance showed a % rosette formation (iC3b microspheres, monocytes, buffer) of 96%; a % rosette formation (monocytes treated with anti-Mac-1, 14 x 10^3 iC3b per E) of 20%; a % rosette formation (monocytes treated with anti-Mac-1, 65 x 10^3 iC3b per E) of 92%; a % rosette formation (neutrophils treated with anti-Mac-1, 14 x 10^3 iC3b per E) of 13%. In experiment [1], this substance returned a % rosette formation (neutrophils treated with anti-Mac-1, 65 x 10^3 iC3b per E) of 100%. In experiment [6], the % rosette formation (anti-CR1-treated monocytes, 1.4 x 10^4 iC3b per E, BDVA) turned out to be 84%; the % rosette formation (anti-CR1-treated monocytes, 7.9 x 10^3 iC3b per E, BDVA) was found to be 44%; the % rosette formation (monocytes treated with anti-CR1, 14 x 10^3 iC3b per E) came to 95%; the % rosette formation (monocytes treated with anti-CR1, 65 x 10^3 iC3b per E) turned out to be 94%. Besides, in experiment [6], the % rosette formation (monocytes, 7.9 x 10^3 iC3b per E) amounted to 86%; the % rosette formation (neutrophils treated with anti-CR1, 14 x 10^3 iC3b per E) turned out to be 100%; the % rosette formation (neutrophils treated with anti-CR1, 65 x 10^3 iC3b per E) came to 100%. In experiment [7], this substance displayed a % rosette formation (erythrocytes, 37 x 10^3 iC3b per E) of 5%; a % rosette formation (erythrocytes, 65 x 10^3 iC3b per E) of 8%; a % rosette formation (monocytes treated with anti-Mac-1, 14 x 10^3 iC3b per E) of 6%; a % rosette formation (monocytes treated with anti-Mac-1, 65 x 10^3 iC3b per E) of 74%. Besides, in experiment [7], the % rosette formation (monocytes, 14 x 10^3 iC3b per E) was determined as 8%; the % rosette formation (monocytes, 65 x 10^3 iC3b per E) is 77%; the % rosette formation (neutrophils treated with anti-Mac-1, 14 x 10^3 iC3b per E) amounted to 3%; the % rosette formation (neutrophils treated with anti-Mac-1, 65 x 10^3 iC3b per E) was determined as 93%. In experiment [7], the % rosette formation (neutrophils, 14 x 10^3 iC3b per E) worked out at 2%; the % rosette formation (neutrophils, 37 x 10^3 iC3b per E) was found to be 78%; the % rosette formation (neutrophils, 65 x 10^3 iC3b per E) worked out at 97%.

These data come from publication PMC2187331.
